Results reported in the supplement of paper PMC10567573.

B1: ZNF8 (parent)
chain: RIHTGERPYMCKECGKAFSQNSSL
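Note: lentivirally expressed fusions sorted by FACS into six bins by GFP to DsRed ratio, PSI derived from sequencing read proportions per bin multiplied by bin number.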

Variants of: B1
Test: protein stability index of a GFP-peptide fusion (GPS, HEK-293T) (PSI 1-6); higher = more stable
Conditions: c terminus: a fixed tail appended
RIHTGEKPYMCKECGKAFSQNSSL [R7K] gave a protein stability index of 2.35. RIHTGERYYMCKECGKAFSQNSSL [P8Y] gave a protein stability index of 2.62. Work on RIHTGERVYMCKECGKAFSQNSSL [P8V] yielded a protein stability index of 2.67. With RIHTGERRYMCKECGKAFSQNSSL [P8R] the protein stability index was 2.85. With RIHTGERWYMCKECGKAFSQNSSL [P8W] the protein stability index was 2.19. For RIHTGERMYMCKECGKAFSQNSSL [P8M], the protein stability index was 2.98. With RIHTGERQYMCKECGKAFSQNSSL [P8Q] the protein stability index was 2.99. For RIHTGERFYMCKECGKAFSQNSSL [P8F], the protein stability index was 2.28. RIHTGERNYMCKECGKAFSQNSSL [P8N] gave a protein stability index of 2.04. In the case of RIHTGERDYMCKECGKAFSQNSSL [P8D], the protein stability index is reported as 3.23. RIHTGERGYMCKECGKAFSQNSSL [P8G] showed a protein stability index of 2.53. Variant RIHTGERHYMCKECGKAFSQNSSL [P8H] has a protein stability index of 2.12. Work on RIHTGERTYMCKECGKAFSQNSSL [P8T] yielded a protein stability index of 2.96. With RIHTGERKYMCKECGKAFSQNSSL [P8K] the protein stability index was 2.03. Work on RIHTGERIYMCKECGKAFSQNSSL [P8I] yielded a protein stability index of 2.43. With RIHTGERAYMCKECGKAFSQNSSL [P8A] the protein stability index was 2.75. Variant RIHTGERCYMCKECGKAFSQNSSL [P8C] has a protein stability index of 2.31. With RIHTGERLYMCKECGKAFSQNSSL [P8L] the protein stability index was 2.34. With RIHTGERSYMCKECGKAFSQNSSL [P8S] the protein stability index was 2.44. With RIHTGEREYMCKECGKAFSQNSSL [P8E] the protein stability index was 3.22. Variant RIHTGERPYMNKECGKAFSQNSSL [C11N] has a protein stability index of 2.81. Variant RIHTGERPYMEKECGKAFSQNSSL [C11E] has a protein stability index of 3.42. For RIHTGERPYMRKECGKAFSQNSSL [C11R], the protein stability index was 2.67. RIHTGERPYMFKECGKAFSQNSSL [C11F] gave a protein stability index of 2.36. RIHTGERPYMQKECGKAFSQNSSL [C11Q] gave a protein stability index of 3.04. For RIHTGERPYMAKECGKAFSQNSSL [C11A], the protein stability index was 2.73. With RIHTGERPYMDKECGKAFSQNSSL [C11D] the protein stability index was 2.78. Variant RIHTGERPYMSKECGKAFSQNSSL [C11S] has a protein stability index of 2.99. In the case of RIHTGERPYMMKECGKAFSQNSSL [C11M], the protein stability index is reported as 2.82. Work on RIHTGERPYMTKECGKAFSQNSSL [C11T] yielded a protein stability index of 2.48. For RIHTGERPYMLKECGKAFSQNSSL [C11L], the protein stability index was 2.68. RIHTGERPYMHKECGKAFSQNSSL [C11H] gave a protein stability index of 2.75. Work on RIHTGERPYMIKECGKAFSQNSSL [C11I] yielded a protein stability index of 2.19. With RIHTGERPYMPKECGKAFSQNSSL [C11P] the protein stability index was 2.84. Variant RIHTGERPYMGKECGKAFSQNSSL [C11G] has a protein stability index of 3.28. RIHTGERPYMWKECGKAFSQNSSL [C11W] gave a protein stability index of 1.98. For RIHTGERPYMYKECGKAFSQNSSL [C11Y], the protein stability index was 2.28. With RIHTGERPYMKKECGKAFSQNSSL [C11K] the protein stability index was 3.08. In the case of RIHTGERPYMVKECGKAFSQNSSL [C11V], the protein stability index is reported as 2.72. RIHTGGRPYMCKECGKAFSQNSSL [E6G] showed a protein stability index of 1.5. Variant RIHTGKRPYMCKECGKAFSQNSSL [E6K] has a protein stability index of 2.35. RIHTGWRPYMCKECGKAFSQNSSL [E6W] gave a protein stability index of 2.27. In the case of RIHTGYRPYMCKECGKAFSQNSSL [E6Y], the protein stability index is reported as 1.88. With RIHTGHRPYMCKECGKAFSQNSSL [E6H] the protein stability index was 2.36. Work on RIHTGIRPYMCKECGKAFSQNSSL [E6I] yielded a protein stability index of 1.68. Variant RIHTGVRPYMCKECGKAFSQNSSL [E6V] has a protein stability index of 1.98. With RIHTGLRPYMCKECGKAFSQNSSL [E6L] the protein stability index was 2. Variant RIHTGARPYMCKECGKAFSQNSSL [E6A] has a protein stability index of 1.91. RIHTGTRPYMCKECGKAFSQNSSL [E6T] showed a protein stability index of 2.36. Variant RIHTGRRPYMCKECGKAFSQNSSL [E6R] has a protein stability index of 1.71. Variant RIHTGDRPYMCKECGKAFSQNSSL [E6D] has a protein stability index of 2.28. In the case of RIHTGSRPYMCKECGKAFSQNSSL [E6S], the protein stability index is reported as 1.33. With RIHTGPRPYMCKECGKAFSQNSSL [E6P] the protein stability index was 2.34. Variant RIHTGNRPYMCKECGKAFSQNSSL [E6N] has a protein stability index of 2.24. In the case of RIHTGCRPYMCKECGKAFSQNSSL [E6C], the protein stability index is reported as 1.68. With RIHTGQRPYMCKECGKAFSQNSSL [E6Q] the protein stability index was 2.2. With RIHTGFRPYMCKECGKAFSQNSSL [E6F] the protein stability index was 2.44. RIHTGMRPYMCKECGKAFSQNSSL [E6M] showed a protein stability index of 2.7. RIHTGERPYMCKICGKAFSQNSSL [E13I] showed a protein stability index of 1.88. In the case of RIHTGERPYMCKCCGKAFSQNSSL [E13C], the protein stability index is reported as 1.85. For RIHTGERPYMCKHCGKAFSQNSSL [E13H], the protein stability index was 2.14. Work on RIHTGERPYMCKLCGKAFSQNSSL [E13L] yielded a protein stability index of 2.3. For RIHTGERPYMCKRCGKAFSQNSSL [E13R], the protein stability index was 1.87. Variant RIHTGERPYMCKGCGKAFSQNSSL [E13G] has a protein stability index of 1.94. RIHTGERPYMCKACGKAFSQNSSL [E13A] gave a protein stability index of 2.08. Variant RIHTGERPYMCKVCGKAFSQNSSL [E13V] has a protein stability index of 2.1. With RIHTGERPYMCKPCGKAFSQNSSL [E13P] the protein stability index was 2.07. In the case of RIHTGERPYMCKTCGKAFSQNSSL [E13T], the protein stability index is reported as 1.96. In the case of RIHTGERPYMCKKCGKAFSQNSSL [E13K], the protein stability index is reported as 1.78. Work on RIHTGERPYMCKYCGKAFSQNSSL [E13Y] yielded a protein stability index of 1.92. In the case of RIHTGERPYMCKSCGKAFSQNSSL [E13S], the protein stability index is reported as 1.95. With RIHTGERPYMCKNCGKAFSQNSSL [E13N] the protein stability index was 2.35. Work on RIHTGERPYMCKMCGKAFSQNSSL [E13M] yielded a protein stability index of 2.05. In the case of RIHTGERPYMCKFCGKAFSQNSSL [E13F], the protein stability index is reported as 1.59. For RIHTGERPYMCKDCGKAFSQNSSL [E13D], the protein stability index was 1.39. RIHTGERPYMCKQCGKAFSQNSSL [E13Q] gave a protein stability index of 2.24. With RIHTGERPYMCKEAGKAFSQNSSL [C14A] the protein stability index was 3.1. Variant RIHTGERPYMCKEEGKAFSQNSSL [C14E] has a protein stability index of 3.07. With RIHTGERPYMCKEDGKAFSQNSSL [C14D] the protein stability index was 3.48. In the case of RIHTGERPYMCKEFGKAFSQNSSL [C14F], the protein stability index is reported as 2.65. RIHSGERPYMCKECGKAFSQNSSL [T4S] gave a protein stability index of 2.81. Work on RIHWGERPYMCKECGKAFSQNSSL [T4W] yielded a protein stability index of 1.89. Work on RIHVGERPYMCKECGKAFSQNSSL [T4V] yielded a protein stability index of 2.59. In the case of RIHRGERPYMCKECGKAFSQNSSL [T4R], the protein stability index is reported as 2.04. RIHHGERPYMCKECGKAFSQNSSL [T4H] showed a protein stability index of 2.43. Variant RIHPGERPYMCKECGKAFSQNSSL [T4P] has a protein stability index of 3.3. With RIHMGERPYMCKECGKAFSQNSSL [T4M] the protein stability index was 1.88. Variant RIHLGERPYMCKECGKAFSQNSSL [T4L] has a protein stability index of 2.16. Variant RIHNGERPYMCKECGKAFSQNSSL [T4N] has a protein stability index of 2.91. With RIHGGERPYMCKECGKAFSQNSSL [T4G] the protein stability index was 2.19. For RIHQGERPYMCKECGKAFSQNSSL [T4Q], the protein stability index was 3.24. Work on RIHYGERPYMCKECGKAFSQNSSL [T4Y] yielded a protein stability index of 2.1. RIHKGERPYMCKECGKAFSQNSSL [T4K] showed a protein stability index of 2.03. With RIHIGERPYMCKECGKAFSQNSSL [T4I] the protein stability index was 2.68.
